This note sets out measurements from US6111081A, “Lactoferrin variants and uses thereof” (Baylor College of Medicine, priority 1997, dated 2000).

The data set can be described thus: pH-dependent release of 59Fe (dialysis, liquid scintillation counting). In kind it is physicochemical. Conditions: 59Fe-saturated protein dialyzed against buffers pH 7-2, 48 hours, 4° C.; FIG. 4. Here is the method: FIG. 4 depicts pH-dependent release of ^59 Fe from the lactoferrin amino-terminal (MN-2Y) and carboxy-terminal (MC-2Y) iron binding defective variants. ^59 Fe-saturated recombinant human lactoferrin (Rec hLF), MN-2Y and MC-2Y were dialyzed against buffers ranging in pH from 7-2. ^59 Fe remaining bound to the lactoferrin samples after dialysis was quantified by liquid scintillation counting and the Fe/protein molar ratio was determined. The data are represented as means ±S.E.M.
MN-2Y, MC-2Y and MNC-4Y (5 mg) were incubated with a four-fold excess of FeCl3 :^59 FeCl3 :NTA (400:1:8). Ward et al., 1995, Biotechnology 13:498-503. The samples were incubated at room temperature for 30 minutes. The samples were purified through NAP-10 column (Pharmacia, Piscataway, N.J.) followed by dialysis against 0.05 M Tris/HCl, 0.2 M NaCl, pH 7.0 for 12 hours to remove any non-specific iron bound to the lactoferrin variants. Iron bound to the lactoferrin variants after dialysis was quantified by liquid scintillation counting. The pH stability of iron binding for each of the lactoferrin variants was carried out as described previously. […]
The lactoferrin variants were saturated with ^59 FeCl3 and dialyzed against buffers ranging in pH from 7-2 for 48 hours at 4° C. The amount of iron remaining bound to the lactoferrin variants was quantified by liquid scintillation counting. […]

B1: recombinant lactoferrin: purified wild-type recombinant human lactoferrin expressed in Aspergillus awamori (protein, UniProt P02788 20-710, looked up)
Lactotransferrin: GRRRSVQWCAVSQPEATKCFQWQRNMRKVRGPPVSCIKRDSPIQCIQAIAENRADAVTLDGGFIYEAGLAPYKLRPVAAEVYGTERQPRTHYYAVAVVKKGGSFQLNELQGLKSCHTGLRRTAGWNVPIGTLRPFLNWTGPPEPIEAAVARFFSASCVPGADKGQFPNLCRLCAGTGENKCAFSSQEPYFSYSGAFKCLRDGAGDVAFIRESTVFEDLSDEAERDEYELLCPDNTRKPVDKFKDCHLARVPSHAVVARSVNGKEDAIWNLLRQAQEKFGKDKSPKFQLFGSPSGQKDLLFKDSAIGFSRVPPRIDSGLYLGSGYFTAIQNLRKSEEEVAARRARVVWCAVGEQELRKCNQWSGLSEGSVTCSSASTTEDCIALVLKGEADAMSLDGGYVYTAGKCGLVPVLAENYKSQQSSDPDPNCVDRPVEGYLAVAVVRRSDTSLTWNSVKGKKSCHTAVDRTAGWNIPMGLLFNQTGSCKFDEYFSQSCAPGSDPRSNLCALCIGDEQGENKCVPNSNERYYGYTGAFRCLAENAGDVAFVKDVTVLQNTDGNNNEAWAKDLKLADFALLCLDGKRKPVTEARSCHLAMAPNHAVVSRMDKVERLKQVLLHQQAKFGRNGSDCPDKFCLFQSETKNLLFNDNTECLARLHGKTTYEKYLGPQYVAGITNLKKCSTSPLLEACEFLRK
Take B1: the “pH at which iron release begins” value is recorded as 5.0 and the “pH at which iron release is completed” value came out at 2.0.
